Source: article PMC4786644, “The HMGB1 protein induces a metabolic type of tumour cell death by blocking aerobic respiration” (Nature Communications, 2016)

Target: T1, human pyruvate kinase isoform M2 (PK M2) (human, UniProt P14618-1 1-531)
T1 construct: Pyruvate kinase isoform M2, human; used at 2 uM in solution
Assay: ultrafiltration; equimolar HMGB1 and PK M2 (2 uM each) mixed in 300 ul, filtrated (14000 g, 4 C) to 15 ul in an Amicon Ultra 0.5 ml 30 k device; filtrate and retentate analysed by Western blot; HMGB1 and PKM2 also analysed alone
Conditions: both partners purified

T1 sequence (P14618 whole entry, canonical isoform): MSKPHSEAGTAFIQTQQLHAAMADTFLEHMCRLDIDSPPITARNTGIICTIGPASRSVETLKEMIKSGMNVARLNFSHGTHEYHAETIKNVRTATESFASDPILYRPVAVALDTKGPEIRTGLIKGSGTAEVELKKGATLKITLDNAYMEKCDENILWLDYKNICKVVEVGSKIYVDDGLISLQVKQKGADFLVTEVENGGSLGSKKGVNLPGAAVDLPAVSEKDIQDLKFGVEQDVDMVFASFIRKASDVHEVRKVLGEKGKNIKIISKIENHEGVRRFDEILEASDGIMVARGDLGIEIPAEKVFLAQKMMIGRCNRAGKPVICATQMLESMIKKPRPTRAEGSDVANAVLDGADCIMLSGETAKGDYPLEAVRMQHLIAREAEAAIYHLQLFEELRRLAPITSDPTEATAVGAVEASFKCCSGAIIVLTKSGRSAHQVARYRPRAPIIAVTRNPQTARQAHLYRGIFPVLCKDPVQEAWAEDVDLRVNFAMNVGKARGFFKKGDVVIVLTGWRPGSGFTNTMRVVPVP

B1: recombinant human HMGB1 protein (high-mobility group box 1) (natural protein, UniProt P09429 1-215, looked up)
chain: MGKGDPKKPRGKMSSYAFFVQTCREEHKKKHPDASVNFSEFSKKCSERWKTMSAKEKGKFEDMAKADKARYEREMKTYIPPKGETKKKFKDPNAPKRPPSAFFLFCSEYRPKIKGEHPGLSIGDVAKKLGEMWNNTAADDKQPYEKKAAKLKEKYEKDIAAYRAKGKPDAAKKGVVKAEKSKKKKEEEEDEEDEEDEEEEEDEEDEDEEEDDDDE
notes: High-mobility group box 1 protein, human, recombinant; the only recombinant human HMGB1 named is from Sigma-Aldrich; also called rhHMGB1; source: bought: Sigma-Aldrich (recombinant human HMGB1; human HMGB1 protein produced in E. coli)
B1: binds.
